Experimental findings from US20240254227A1 (Alector, published 2024) are described below.

Experiment [1] concerns the target T1, murine CD300LB stably expressed on Jurkat cells (mouse, UniProt Q3U497 18-209).
T1 construct: also called muCD300LB; mouse CD300LB
T1 sequence: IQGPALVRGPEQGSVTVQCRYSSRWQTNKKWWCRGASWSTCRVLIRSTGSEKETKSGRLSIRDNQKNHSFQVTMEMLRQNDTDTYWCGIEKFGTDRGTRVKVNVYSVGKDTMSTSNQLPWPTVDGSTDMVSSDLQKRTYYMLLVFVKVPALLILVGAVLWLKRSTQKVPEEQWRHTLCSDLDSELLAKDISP
Put plainly: flow cytometry, stable Jurkat cells, supernatant or 10 ug/mL, isotype subtracted. The procedure:
(§1) Purified anti-CD300LB antibodies of the present disclosure were also evaluated for species cross-reactivity to mouse and human CD300LB stably expressed in Jurkat cells (generation of which is described above). Cells were counted and labeled with 200 nM CFSE, 500 nM VioBlue, or a combination of the two to discriminate between human CD300LB, Parental cells and mouse CD300LB. Cells were washed thoroughly with PBS containing 2% fetal bovine serum then resuspended at a total of 240,000 cells per well. Hybridoma supernatants (100 L) or purified antibodies at 10 μg/mL were added and incubated for one hour before the cells were washed again and stained with an APC-labeled anti-human or anti-mouse secondary. Cells were then analyzed using a BD FACSCanto II. Antibodies were analyzed for binding to mouse or human CD300LB by FlowJo software by gating on live cells, then the APC gMFI calculated for each labeled population by subtraction of the gMFI of the appropriate isotype control.
(In general: A flow cytometer gives signals particle by particle.)

Experiment [2] has as its target T2, recombinant human CD300LB overexpressed on Jurkat cells (human, UniProt A8K4G0 18-201).
T2 construct: also called huCD300LB; huCD300LB-expressing Jurkat cells
T2 sequence: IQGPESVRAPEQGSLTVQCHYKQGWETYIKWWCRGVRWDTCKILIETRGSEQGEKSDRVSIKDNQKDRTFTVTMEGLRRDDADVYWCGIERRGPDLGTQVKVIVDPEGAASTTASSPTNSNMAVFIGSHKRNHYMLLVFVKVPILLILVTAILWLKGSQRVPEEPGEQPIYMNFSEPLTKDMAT
The description is as above. As to the method: as §1

B1: anti-CD300LB antibody CD-05 (antibody, V domains shown)
VH: QVQLVQSGAEVKKPGASVKVSCKASGYTFSRYYINWVRQAPGQGLEWMGWINPNSGGTNYAQKFQGRVTMTRDTSTSTVYMELSSLRSEDTAVYYCTTDQLRFGKTGPYYGMDVWGQGTTVTVSS
VL: DIQMTQSPSSLSASVGDRVTITCRASQNIGTYLNWYQQKPGKAPKLLIYAASSLQSGVPSRFSGSGSGTDFTLTISSLQPEDFATYYCQQSYSDTLTFGGGTKVEIK
Take B1: the gMFI stood at 172 gMFI in experiment [1] and 1810 gMFI in experiment [2].

B2: anti-CD300LB antibody CD-06 (antibody, V domains shown)
VH: QVQLVQSGAEVKKPGASVKVSCKASGYTFTTYAVHWVRQAPGQGLEWMGIVNPNSGGTNYAQKFQGRVTMTRDTSTSTVYMELSSLRSEDTAVYYCARDIVPMNNFYNYYYGMDVWGQGTTVTVSS
VL: DIQMTQSPSSLSASVGDRVTITCRASQSISSYLNWYQQKPGKAPKLLIYATSTLQSGVPSRFSGSGSGTDFTLTISSLQPEDFATYYCQQSYRIPYTFGQGTKVEIK
As to B2, the gMFI in experiment [1] was -48.7 gMFI; in experiment [2] it was 3180 gMFI.

B3: anti-CD300LB antibody CD-01 (antibody, V domains shown)
VH: RVQLQQSGAELVRPGASVTLSCKASGFTFTDFEMHWVKKTPVHGLEWIGAIDPESGNTAYNQKFRGKATLTADKSSSTAYMELRYLTSEDSAVYYCTPLISGADYWGQGTTLTVSS
VL: DVVMTQSPLSLPVSLGDQASISCRSSQSLVHSDGNTYLYWYLQKPGQSPKLLIYKVSNRFSGVPDRFSGSGSGTDFTFKISRVGAEDLGVYFCSQSTHVPWTFGGGTKLEII
With B3, the gMFI is 860 gMFI in experiment [1] and 309 gMFI in experiment [2].

B4: anti-CD300LB antibody CD-02 (antibody, V domains shown)
VH: QVQLQQPGAELVRPGSSVKLSCQASGYTFTNYWMHWVRQRPIQGLEWIGNIDPSDSETHYNQKFKDRATLTVDKSSSTAYMQLSSLTSEDSAVYYCARSGVYDDEGGDYWGQGTTLTVSS
VL: ENVLTQSPAIMSASPGEKVTMTCSASSSVSYIHWYQQKSSTSPKLWIYDTSKLASGVPGRFSGSGSGNSYSLTISSMETEDVATYYCFQGSGYPLTFGAGTKLELK
On to B4, for which the figures for the gMFI in experiment [1] and in experiment [2] were 23 gMFI and 1130 gMFI, respectively.
